According to patent publication US20180311371A1 (Hoffmann-La Roche, published 2018):
Read-outs that look alike come from different tables or passages of the source.

Experiments:
[1] = target: T1, human TPBG (trophoblast glycoprotein), full length, cell surface expressed (human, UniProt Q13641 32-420)
T1 sequence: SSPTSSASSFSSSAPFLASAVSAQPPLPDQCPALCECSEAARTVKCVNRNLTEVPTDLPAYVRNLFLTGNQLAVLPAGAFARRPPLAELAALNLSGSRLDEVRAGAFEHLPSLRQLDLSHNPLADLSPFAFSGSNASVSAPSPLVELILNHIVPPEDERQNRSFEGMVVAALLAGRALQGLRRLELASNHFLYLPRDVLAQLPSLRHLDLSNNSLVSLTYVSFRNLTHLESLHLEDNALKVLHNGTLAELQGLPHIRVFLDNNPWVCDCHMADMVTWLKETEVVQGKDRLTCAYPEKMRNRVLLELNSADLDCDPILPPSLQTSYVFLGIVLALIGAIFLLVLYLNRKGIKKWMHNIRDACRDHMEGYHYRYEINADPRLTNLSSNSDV

[2] = target: T1, human TPBG (trophoblast glycoprotein), …; experiment: cell-based or functional assay
[3] = target: T2, minipig TPBG, full length, cell surface expressed on CHO-K1 cells (minipig); experiment: cell-based or functional assay
T2 chain: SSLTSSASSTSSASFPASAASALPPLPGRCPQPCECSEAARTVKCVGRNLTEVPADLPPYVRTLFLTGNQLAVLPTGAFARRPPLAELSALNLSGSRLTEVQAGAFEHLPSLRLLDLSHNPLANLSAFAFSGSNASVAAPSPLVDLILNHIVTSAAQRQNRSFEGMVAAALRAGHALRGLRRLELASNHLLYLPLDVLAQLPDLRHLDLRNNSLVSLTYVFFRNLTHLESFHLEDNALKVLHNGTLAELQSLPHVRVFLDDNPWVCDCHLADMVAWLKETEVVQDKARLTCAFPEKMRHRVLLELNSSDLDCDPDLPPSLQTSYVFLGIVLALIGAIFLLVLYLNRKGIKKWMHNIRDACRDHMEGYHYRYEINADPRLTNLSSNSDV

[4] = target: T1, human TPBG (trophoblast glycoprotein), …; experiment: cell-based or functional assay; remark: listed apart in the source
[5] = target: T1, human TPBG (trophoblast glycoprotein), …; experiment: cell-based or functional assay; remark: listed apart in the source
[6] = target: T1, human TPBG (trophoblast glycoprotein), …; experiment: cell-based or functional assay; remark: listed apart in the source
[7] = target: T1, human TPBG (trophoblast glycoprotein), …; experiment: cell-based or functional assay; remark: listed apart in the source
[8] = target: T3, huTPBG (recombinant human TPBG immobilised on the Biacore chip) (human, UniProt Q13641 32-355, limits assumed); experiment: SPR Biacore T200; huTPBG amine-coupled, Fab-PE injected; pH 5.5
T3 construct: also called human TPBG antigen
T3 sequence: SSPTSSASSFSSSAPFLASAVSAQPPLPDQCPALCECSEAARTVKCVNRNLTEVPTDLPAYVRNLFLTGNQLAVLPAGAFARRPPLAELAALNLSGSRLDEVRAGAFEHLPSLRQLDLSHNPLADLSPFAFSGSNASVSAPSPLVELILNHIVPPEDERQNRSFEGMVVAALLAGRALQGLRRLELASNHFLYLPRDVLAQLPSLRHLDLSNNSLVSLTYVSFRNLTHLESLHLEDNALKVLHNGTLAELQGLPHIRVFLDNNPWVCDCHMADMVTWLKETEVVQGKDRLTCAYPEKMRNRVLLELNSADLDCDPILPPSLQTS

[9] = target: T3, huTPBG (recombinant human TPBG …); experiment: SPR Biacore T200; huTPBG amine-coupled, Fab-PE injected; pH 7.4
[10] = target: T1, human TPBG (trophoblast glycoprotein), …; experiment: flow cytometry on CHO-K1 stably expressing human TPBG; Fab-PE fusion
[11] = target: T2, minipig TPBG, full length, cell surface …; experiment: flow cytometry on CHO-K1 stably expressing minipig TPBG; Fab-PE fusion

B1: anti-TPBG 091 Fab-PE fusion protein (refolded from E. coli inclusion bodies) (Fab)
heavy: MEVHLLESGGGLVHPGGSLRLSCAASGFTFRSDAMHWVRQAPGKGLEWVSGVSGSGGSPYYADSVKGRFTISRDDSKTTLYLQMNSLRAEDTAVYYCATGGSIAGSYYYYPMDVWGQGTTVTVSSASTKGPSVFPLAPSSKSTSGGTAALGCLVKDYFPEPVTVSWNSGALTSGVHTFPAVLQSSGLYSLSSVVTVPSSSLGTQTYICNVNHKPSNTKVDKKVEPKSCDKTHKASGGRHRQPRGWEQLGGGGGSPTGAEFLGDGGDVSFSTRGTQNWTVERLLQAHAQLEERGYVFVGYHGTFLEAAQSIVFGGVAARSQDLAAIWAGFYIAGDPALAYGYAQDQEPDAAGRIRNGALLRVYVPASSLPGFYRTSLTLAAPEAAGEVERLIGHPLPLALDAITGPEEEGGRLETILGWPLAERTVVIPSAIPTDPRNVGGDLDPSSIPDKEQAISALPDYASQPGKPPREDLK
light: not shown
notes: also called Fab-PE comprising antibody 091
EC50 [1]: 890 pM
EC50 cytotoxicity, Fab-PE fusion, stable CHO-K1 huTPBG [2]: 50 pM
EC50 cytotoxicity, Fab-PE fusion, stable CHO-K1 pgTPBG [3]: 150 pM
X-fold lower potency pgTPBG versus huTPBG [3]: 3.3 fold
EC50 cytotoxicity, Fab-PE fusion, H1975, replicate 1 [4]: 5 pM
EC50 cytotoxicity, Fab-PE fusion, H1975, replicate 2 [4]: 3 pM
EC50 proliferation, H1975, 10 min exposure [5]: 57 pM
EC50 proliferation, H1975, 30 min exposure [5]: 62 pM
EC50 proliferation, H1975, 60 min exposure [5]: 43 pM
EC50 proliferation, H1975, continuous exposure [5]: 3 pM
X-fold higher potency than Fab-PE fusion protein of H8, H1975, 10 min [6]: 4 fold
X-fold higher potency than Fab-PE fusion protein of H8, H1975, 30 min [6]: 3.3 fold
X-fold higher potency than Fab-PE fusion protein of H8, H1975, 60 min [6]: 4.2 fold
X-fold higher potency than Fab-PE fusion protein of H8, H1975, continuous [6]: 3.7 fold
EC50 protein synthesis inhibition (luciferase), BxPC-3, replicate 1 [7]: 14 pM
EC50 protein synthesis inhibition (luciferase), BxPC-3, replicate 2 [7]: 7 pM
Kd [8]: 8890 pM
koff [8]: 0.00201 s⁻¹
kon [8]: 226000 M⁻¹ s⁻¹
Kd [9]: 461 pM
koff [9]: 0.000129 s⁻¹
kon [9]: 280000 M⁻¹ s⁻¹
EC50 [10]: 8500 pM
EC50 [11]: 10800 pM

B2: anti-TPBG 097 Fab-PE fusion protein (refolded from E. coli inclusion bodies) (Fab)
heavy: MEVQLLESGGGLAQPGGSLRLSCAASGFTFNNDAMTWVRQAPGKGLEWVSAISGSGGSTYYADSVKGRFTISRDNSKNTLYLQMNSLRAEDTAVYYCAKGGSWGDWYYYFYPMDVWGQGTTVTVSSASTKGPSVFPLAPSSKSTSGGTAALGCLVKDYFPEPVTVSWNSGALTSGVHTFPAVLQSSGLYSLSSVVTVPSSSLGTQTYICNVNHKPSNTKVDKKVEPKSCDKTHKASGGRHRQPRGWEQLGGGGGSPTGAEFLGDGGDVSFSTRGTQNWTVERLLQAHAQLEERGYVFVGYHGTFLEAAQSIVFGGVAARSQDLAAIWAGFYIAGDPALAYGYAQDQEPDAAGRIRNGALLRVYVPASSLPGFYRTSLTLAAPEAAGEVERLIGHPLPLALDAITGPEEEGGRLETILGWPLAERTVVIPSAIPTDPRNVGGDLDPSSIPDKEQAISALPDYASQPGKPPREDLK
light: not shown
notes: also called Fab-PE comprising antibody 097
EC50 [1]: 640 pM
EC50 cytotoxicity, Fab-PE fusion, stable CHO-K1 huTPBG [2]: 40 pM
EC50 cytotoxicity, Fab-PE fusion, stable CHO-K1 pgTPBG [3]: 140 pM
X-fold lower potency pgTPBG versus huTPBG [3]: 3.4 fold
EC50 cytotoxicity, Fab-PE fusion, H1975, replicate 1 [4]: 13 pM
EC50 cytotoxicity, Fab-PE fusion, H1975, replicate 2 [4]: 13 pM
EC50 proliferation, H1975, 10 min exposure [5]: 211 pM
EC50 proliferation, H1975, 30 min exposure [5]: 189 pM
EC50 proliferation, H1975, 60 min exposure [5]: 203 pM
EC50 proliferation, H1975, continuous exposure [5]: 13 pM
X-fold higher potency than Fab-PE fusion protein of H8, H1975, 10 min [6]: 0.9 fold
X-fold higher potency than Fab-PE fusion protein of H8, H1975, 30 min [6]: 0.9 fold
X-fold higher potency than Fab-PE fusion protein of H8, H1975, 60 min [6]: 1.1 fold
X-fold higher potency than Fab-PE fusion protein of H8, H1975, continuous [6]: 1.1 fold
EC50 protein synthesis inhibition (luciferase), BxPC-3, replicate 1 [7]: 22 pM
EC50 protein synthesis inhibition (luciferase), BxPC-3, replicate 2 [7]: 8 pM
Kd [8]: 7490 pM
koff [8]: 0.00605 s⁻¹
kon [8]: 808000 M⁻¹ s⁻¹
Kd [9]: 1970 pM
koff [9]: 0.00121 s⁻¹
kon [9]: 614000 M⁻¹ s⁻¹
EC50 [10]: 5600 pM
EC50 [11]: 15400 pM
